Data taken from paper PMC9601805, “Characterization of the Escherichia coli pyridoxal 5′‐phosphate homeostasis protein (YggS): Role of lysine residues in PLP binding and protein stability” (Protein Science : A Publication of the Protein Society, 2022).
Residue numbers refer to the chain shown, from its start. Numbers in names are those of the source.

B1: WT: recombinant His-tagged wild-type E. coli YggS, the PLP homeostasis protein (PLPHP) (protein)
chain: MNDIAHNLAQVRDKISAAATRCGRSPEEITLLAVSKTKPASAIAEAIDAGQRQFGENYVQEGVDKIRHFQELGVTGLEWHFIGPLQSNKSRLVAEHFDWCHTIDRLRIATRLNDQRPAELPPLNVLIQINISDENSKSGIQLAELDELAAAVAELPRLRLRGLMAIPAPESEYVRQFEVARQMAVAFAGLKTRYPHIDTLSLGMSDDMEAAIAAGSTMVRIGTAIFGARDYSKK
modifications: PLP covalently bound to Lys36 through a Schiff base linkage; left off: His-tag, end not stated, kept
B2: K36A/K38A/K137A: E. coli YggS triple lysine variant (protein)
chain: B1 chain with K36A, K38A, K137A
modifications: left off: His-tag, C-terminal, state not stated
notes: E. coli YggS triple lysine variant
B3: K36A/K38A/K137A/K233A/K234A: E. coli YggS quadruple lysine variant (protein)
chain: B1 chain with K36A, K38A, K137A, K233A, K234A
modifications: left off: His-tag, C-terminal, state not stated
notes: E. coli YggS quadruple lysine variant
B4: K36A/K137A/K233A/K234A: E. coli YggS triple lysine variant (protein)
chain: B1 chain with K36A, K137A, K233A, K234A
modifications: left off: His-tag, C-terminal, state not stated
notes: as for B2
B5: K36A/K38A/K233A/K234A: E. coli YggS triple lysine variant (protein)
chain: B1 chain with K36A, K38A, K233A, K234A
modifications: left off: His-tag, C-terminal, state not stated
notes: as for B2
B6: ΔK233/K234: E. coli YggS variant lacking the last two C-terminal residues K233 and K234 (protein)
chain: MNDIAHNLAQVRDKISAAATRCGRSPEEITLLAVSKTKPASAIAEAIDAGQRQFGENYVQEGVDKIRHFQELGVTGLEWHFIGPLQSNKSRLVAEHFDWCHTIDRLRIATRLNDQRPAELPPLNVLIQINISDENSKSGIQLAELDELAAAVAELPRLRLRGLMAIPAPESEYVRQFEVARQMAVAFAGLKTRYPHIDTLSLGMSDDMEAAIAAGSTMVRIGTAIFGARDYS
modifications: left off: His-tag, N-terminal, state not stated

Tests used:
E. coli ΔyggS = assay: 4dPN sensitivity assay and complementation by YggS variants in trans; assay type: cell-based, Escherichia coli
Procedure: Bacteria were grown in Luria‐Bertani (LB; Tryptone 10 g L^− 1, Yeast extract 5 g L^− 1, NaCl 10 g L^− 1) or M9 minimal medium (Cold Spring Harbor Protocols, Cold Spring Harbor, NY) at 37°C, unless otherwise specified. Growth media were solidified with agar (16 g L^− 1; Fisher Scientific) for the preparation of plates. 4dPN toxicity assays were performed on thin (20 ml) M9 minimal medium plates containing 0.4% glucose (carbon source), ampicillin (100 μg ml^−1), 1 μM PN, and 0.02% or 0.2% arabinose when appropriate.
Wild‐type yggS was amplified by PCR with primers DH596 and DH598 from E. coli BW25113 and cloned in pBAD24 using restriction sites SphI and NcoI to give pBY291.3. The pBY291.3 plasmid and its derivatives were then used as templates with the NEB Q5 Site‐Directed Mutagenesis Kit and the primer pairs indicated in Table S4 to introduce site‐directed residue mutant constructs. All constructs were verified by sequencing and transformed into E. coli wild‐type (BW25113) and ΔyggS (VDC6594) electrocompetent cells for use in physiological studies. Plasmid transformations were performed following standard procedures and protein expression from each construct was confirmed by SDS‐PAGE and western blot analysis.
Three isolated colonies of each strain were inoculated into 5 ml LB Amp 200 μg ml^− 1 and incubated at 37°C and 200 rpm overnight. Overnight cultures were diluted 1:500 into 5 ml fresh LB Amp 200 μg ml^− 1 ± 0.02% or 0.2% arabinose and grown at 37°C, shaking. Once cultures reached midlog growth (OD600 of 0.4–0.7) samples were taken from each culture for western blot analysis (below) then cells were again incubated until stationary growth was reached (~6 hr). Cells were harvested by centrifugation then washed twice with and resuspended in 1x PBS. Optical density of washed cells was measured at 600 nm in 1 ml cuvettes (Fisher Scientific) using a BioSpec‐mini DNA/RNA/Protein analyzer (Shimadzu Biotech) and each strain was normalized to an OD600 of 0.006 in 3 ml 1x PBS. […]

apo‐YggS = target: T1, apo‐YggS (Escherichia coli, UniProt P67080); assay: biochemical; assay type: binding; details: WT apo-YggS
T1 construct: made in house; host or cells: E. coli HMS174(DE3)
Procedure: Equilibrium binding analyses were carried out by measuring the decrease of protein intrinsic fluorescence observed upon the addition of increasing PLP concentrations to a fixed concentration of apo‐YggS (Figure 1b).
Dissociation constants were calculated from saturation curves obtained measuring the protein fluorescence emission intensity as a function of increasing PLP concentration. […] Fluorescence emission spectra were recorded from 310 to 450 nm upon excitation at 280 nm. Excitation and emission slits were set at 3 and 5 nm, respectively.

apo‐eSHMT = apo‐eSHMT (Escherichia coli, UniProt P0A825)
apo‐eSHMT, sequence (P0A825 whole entry): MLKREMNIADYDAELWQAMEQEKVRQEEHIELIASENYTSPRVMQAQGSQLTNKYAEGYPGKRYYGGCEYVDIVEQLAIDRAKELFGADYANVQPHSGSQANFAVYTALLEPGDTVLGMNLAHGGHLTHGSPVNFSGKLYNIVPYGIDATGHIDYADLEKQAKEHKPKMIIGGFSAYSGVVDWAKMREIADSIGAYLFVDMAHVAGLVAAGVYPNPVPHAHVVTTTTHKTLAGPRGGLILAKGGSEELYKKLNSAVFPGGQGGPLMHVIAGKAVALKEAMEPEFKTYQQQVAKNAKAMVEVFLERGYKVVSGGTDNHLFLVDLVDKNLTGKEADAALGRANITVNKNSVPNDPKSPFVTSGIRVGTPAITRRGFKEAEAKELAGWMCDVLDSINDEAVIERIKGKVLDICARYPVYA
Procedure: We set up a novel in vitro discontinuous assay in which PLP transfer from holo‐YggS to the apo‐form of eSHMT could be followed (see Section 4 for details). In this assay, the increase in SHMT activity is measured as PLP dissociates from holo‐YggS and binds to apo‐SHMT, forming the catalytically active holo‐SHMT. […] The binding kinetics of free PLP to either apo‐YggS or apo‐SHMT was measured by manually mixing 20 μM free PLP with 20 μM of protein, observing the formation of the internal aldimine at 420 nm.
WT Holo‐YggS (20 μM with respect to PLP) was mixed with 20 μM apo‐eSHMT in 50 mM NaHEPES buffer at pH 7.6.

[1] = Differential scanning fluorimetry (DSF), apparent Tm of YggS forms; assay type: physicochemical; details: for T m (°C) Apo +2 μM PLP: 2 μM protein + 2 μM (equimolar) PLP; for T m (°C) Apo + 300 μM PLP: 2 μM protein + 300 μM PLP; for T m (°C) Apo: apo-form, 2 μM protein, no PLP
Procedure: Differential scanning fluorimetry (DSF) assays were performed on a Real Time PCR Instrument (CFX Connect Real Time PCR system, Bio‐Rad, Hercules, CA). In a typical experiment, 2 μM WT and variant apo‐YggS forms in 50 mM NaHEPES, pH 7.5, 50 mM NaCl, and Sypro Orange (5x, Thermo Scientific) were mixed with various ligands (total volume of 25 μl) in a 96‐well PCR plate. Fluorescence was measured from 25°C to 95°C in 0.4°C/30 s steps (excitation 450–490 nm; detection 560–580 nm). All samples were run in triplicate. Denaturation profiles were analyzed as described in Nardella et al.[40]

[2] = PLP binding equilibrium of YggS WT and variant forms, intrinsic fluorescence change; details: E. coli YggS form 0.1 μM, 50 mM NaHEPES pH 7.6, 25°C, excitation 280 nm; mean ± SEM; read-out: K D (nM) of the PLP binding equilibrium
Procedure: Analyses took advantage of YggS intrinsic fluorescence decrease observed upon binding of PLP. Dissociation constants were calculated from saturation curves obtained measuring the protein fluorescence emission intensity as a function of increasing PLP concentration. Fluorescence emission measurements were carried out at 25°C, in 50 mM NaHEPES buffer at pH 7.6 with a FluoroMax‐3 Jobin Yvon Horiba spectrofluorometer, using a 1‐cm path length quartz cuvette. All analyzed YggS forms were used at a final subunit concentration of 0.1 μM. Fluorescence emission spectra were recorded from 310 to 450 nm upon excitation at 280 nm. Excitation and emission slits were set at 3 and 5 nm, respectively. Emission fluorescence values between 330 and 340 nm were averaged and analyzed using the following quadratic equation to obtain K D value: (1) Frel=Finf−F0×PLP+[YggS]+KD−PLP+[YggS]+KD^2−4[YggS]PLP/2/[YggS]+F0

[3] = Covalent (Schiff base) PLP binding judged by absorption spectra; details: ~416–420 nm band
Procedure: Our strategy was to start from the K36A variant and gradually add further variations so as to obtain all possible combinations of double, triple, and quadruple variants. Variations of the last two residues at the C‐terminal end of the protein, K233 and K234, were always introduced together and are therefore considered as a single K233A/K234A variation.
All spectroscopic measurements were carried out at 20°C in 20 mM NaHEPES pH 7.5. UV–visible spectra were recorded with a Hewlett‐Packard 8453 diode‐array spectrophotometer. Far‐UV (190–250 nm) and Near‐UV–visible (250–500 nm) CD spectra were measured with a Jasco 710 spectropolarimeter equipped with a DP 520 processor using 0.1‐cm (far‐UV) or 1‐cm path length quartz cuvettes and results were expressed as ellipticity [Θ]. Absorption spectra of WT and variant forms were deconvoluted into their component bands using Metzler's band‐shape analysis method.[22]

[4] = 20 μM holo-YggS, 20 μM apo-SHMT, 37°C

Molecule | change in fluorescence emission attributable to binding (apo‐YggS) | T m (°C) Apo +2 μM PLP [1] | T m (°C) Apo + 300 μM PLP [1] | T m (°C) Apo [1] | Kd [2] | capability to bind PLP covalently as a Schiff base [3] | further results
Cc1ncc(CO)c(C)c1O [4dPN, 4‐deoxypyridoxine, reference compound] | could only be detected with PL and PNP |  |  |  |  |  | 4dPN sensitivity (ring of growth inhibition) (E. coli ΔyggS; 20 μl of 25 mM 4dPN in central well, M9 minimal medium with 1 μM PN): clear 4dPN sensitivity phenotype
Cc1ncc(COP(=O)(O)O)c(C)c1O [4dPNP] | could only be detected with PL and PNP |  |  |  |  |  | 
Cc1ncc(CO)c(CO)c1O [PN, pyridoxine] | could only be detected with PL and PNP |  |  |  |  |  | 
B1 |  | 70.8 ± 0.8 °C | 82.2 ± 0.1 °C | 55.1 ± 0.3 °C | 1.3 ± 0.8 nM |  | PLP initially bound to YggS transferred to SHMT at equilibrium (apo‐eSHMT; [4]): approximately 15%; time to reach PLP transfer equilibrium (apo‐eSHMT; [4]): about 30 min; rate constant of PLP transfer (apo‐eSHMT; 20 μM holo-YggS, 20 μM apo-SHMT, 37°C, 50 mM NaHEPES pH 7.6): 0.14 ± 0.02 min⁻¹; T m (°C) Apo +2 μM PLP ([1]; listed as apo‐YggS): 70 °C; T m (°C) Apo + 300 μM PLP ([1]; listed as apo‐YggS): about 82 °C; T m (°C) Apo ([1]; listed as apo‐YggS): 56 °C; complementation of the 4dPN sensitivity phenotype of ΔyggS (E. coli ΔyggS; expression in trans, M9 0.4% glucose, 1 μM PN, 20 μl of 25 mM 4dPN): complemented
B2 |  | 69.4 ± 0.1 °C | 75.2 ± 1.2 °C | 68.9 ± 0.2 °C | 43 ± 19 nM |  | PLP transfer kinetics compared with WT YggS (apo‐eSHMT; transfer to apo-SHMT): faster and much more extensive transfer of PLP
B3 |  | 68.8 ± 0.1 °C | 69.1 ± 0.3 °C | 68.7 ± 0.1 °C |  | lost the capability to bind PLP covalently | 
B4 |  | 64.7 ± 0.1 °C | 66.0 ± 0.1 °C | 64.6 ± 0.1 °C |  |  | 
B5 |  | 68.9 ± 0.1 °C | 69.6 ± 0.1 °C | 68.8 ± 0.1 °C |  | lost the capability to bind PLP covalently | 
B6 |  | 73.1 ± 0.3 °C | 84.0 ± 0.4 °C | 61.4 ± 0.8 °C | 2.8 ± 0.7 nM | able to bind PLP as a Schiff base | 
